Source: PMC11009412, “Pathogenic mutations of human phosphorylation sites affect protein–protein interactions” (Nature Communications, 2024)
Blank lines part the entries; values can stand above or below the substance they belong to.

What was measured:
PLCG1 = PLCG1 (UniProt P19174); experiment: PRISMA peptide-membrane pull-down, SILAC MS; details: reference: unphosphorylated wild-type peptide; sites Y1092
STAT3 = STAT3 (UniProt P40763); experiment: PRISMA peptide-membrane pull-down, SILAC MS; details: reference: unphosphorylated wild-type peptide; sites Y1092
GRB2 = GRB2 (UniProt P62993); experiment: PRISMA peptide-membrane pull-down, SILAC MS; details: reference: unphosphorylated wild-type peptide; sites Y1092
14-3-3 zeta (YWHAZ) = 14-3-3 zeta (YWHAZ) (UniProt P63104); experiment: PRISMA alanine-scan pull-down, LFQ MS; details: reference: unphosphorylated wild-type peptide; sites S102
14-3-3 eta (YWHAH) = 14-3-3 eta (YWHAH) (UniProt Q04917); experiment: PRISMA alanine-scan pull-down, LFQ MS; details: reference: unphosphorylated wild-type peptide; sites S102
14-3-3 theta (YWHAQ) = 14-3-3 theta (YWHAQ) (UniProt P27348); experiment: PRISMA alanine-scan pull-down, LFQ MS; details: reference: unphosphorylated wild-type peptide; sites S102
[1] = target: 14-3-3 beta/alpha (YWHAB) (UniProt P31946); experiment: PRISMA alanine-scan pull-down, LFQ MS; details: reference: unphosphorylated wild-type peptide; sites S102
14-3-3 epsilon (YWHAE) [2] = target: 14-3-3 epsilon (YWHAE) (UniProt P62258); experiment: PRISMA alanine-scan pull-down, LFQ MS; details: reference: unphosphorylated wild-type peptide; sites S102
14-3-3 gamma = 14-3-3 gamma (UniProt P61981); experiment: PRISMA alanine-scan pull-down, LFQ MS; details: reference: unphosphorylated wild-type peptide; sites S102
14-3-3 epsilon (YWHAE) [3] = target: 14-3-3 epsilon (YWHAE) (UniProt P62258); experiment: ITC; PEAQ-ITC, 18 °C, 400 µM peptide in the syringe, 25 µM 14-3-3ε in the reaction chamber; 20 mM HEPES pH 7.0, 150 mM NaCl, 2 mM DTT

binding against the reference (PLCG1): stronger
binding against the reference (STAT3): stronger
other: SILAC ratio phos/wt (GRB2): > 20
Substance: EGFR (from UniProt P00533) pTyr1092 peptide

binding against the reference (14-3-3 zeta (YWHAZ)): stronger
binding against the reference (14-3-3 eta (YWHAH)): stronger
binding against the reference (14-3-3 theta (YWHAQ)): stronger
binding against the reference [1]: stronger
binding against the reference (14-3-3 epsilon (YWHAE) [2]): stronger
binding against the reference (14-3-3 gamma): stronger
Substance: GATAD1 (from UniProt Q8WUU5) pS102 peptide

Kd (14-3-3 epsilon (YWHAE) [3]): 3.4 µM
Substance: GATAD1 phosphopeptide 95-LRNTKYKpSAPAAEKK-109
